Measurements as given in the DeepSol protein solubility set.

test: soluble on expression in E. coli; label from the status in PepcDB or PDB records

Which “soluble on expression in E. coli” value does the source give for “MESKVVVPAQGKKITLQNGKLNVPENPIIPYIEGDGIGVDVTPAMLKVVDAAVEKAYKGERKISWMEIYTGEKSTQVYGQDVWLPAETLDLIREYRVAIKGPLTTPVGGGIRSLNVALRQELDLYICLRPVRYYQGTPSPVKHPELTDMVIFRENSEDIYAGIEWKADSADAEKVIKFLREEMGVKKIRFPEHCGIGIKPCSEEGTKRLVRAAIEYAIANDRDSVTLVHKGNIMKFTEGAFKDWGYQLAREEFGGELIDGGPWLKVKNPNTGKEIVIKDVIADAFLQQILLRPAEYDVIACMNLNGDYISDALAAQVGGIGIAPGANIGDECALFEATHGTAPAYAGQDKVNPGSIILSAEMMLRHMGWTEAADLIVKGMEGAINAKTVTYDFERLMDGAKLLKCSEFGDAIIENM” here?
Its value is “soluble”.

Which “soluble on expression in E. coli” value does the source give for “MESLAAKVVERLNRAESAAELRFCHDELARELRRCLAPEQMKQLAGDVVCVHEAILRRAFFLAERETMKRSVGIRPPAWCWYVMGSIGRREPTIWTDQDHGILFDCPEEEEAACYEFIRHMAAVGVDMLHEAGYPYCSGYVMATNKRWAQSVRGWEQQLSSYLDSGWPNDIRFLLIAMDMRPLYGETELAEEGRRMLFSAVAKRPPLLAVRPAWVRRYRVKVPNGGWRAPTVS” here?
The value was “not soluble”.

With “MESLKSNLFLTREAYLEAFETIMTPLKTAILTSEKPGVNFGSSGAVYDQQHAEMEALIRPLWGIGPYWVTCKDDVLRDAYVEKLIAGTDPSSPDYWGVIVDYDQYIVEAAALSLTLLLHKTYFWSCFSEKQQENIMVWLNKALGCKIPKNNWTFFKVLIRLALEGCGQVINQAELEEELALIECMYLGDGWYMDGKTTQRDYYISFAFHYYSLIYVKFMRERDPIRAKRFTERAVMFAQDYLYYFDEEGEALPYGRSQTYRFAQGAFFAALIFAEVEALPWGQIKTLLAKHLHCWMQQAIFTYDGRLSIGYHYENLVMAEGYNAPGSPYWAFKTFLLLAVDQDHPFWRAEPLAIKREEKRLIEKGNMLLIHPKMKTHVLGYPAGLWLENQAHAAAKYSKFVYSSRFGFSVPKAGARYEEGAFDNVLAVSRDGEYFRVKGKVHDFYLTEEQVYYKWLPFQEVEIETTIYPFGEWHVRVHEIVTSVPLKVREGGFSLPLLGKFSEKELGKEWARVDSGELCSQIVAIEGYDHAGILQPEPNTSLFFPRTSLPYLQKELPIGTHRLICLVGGVTREE” as the sequence, how does the “soluble on expression in E. coli” value read?
The value was “soluble”.

For “MESSGKSSANPNLLAETLTTMQAQLQTQTEISQQVMEDNKNQSALLKQQREMSQALLEENKRLRAAQGDQPRFVAVGEKPLNSVKLMSDLLRQLPKYHFDVSEPDSFTKWWARHKLTFTEDGAELSNRERNRMLVARLEESTFQRFVDSQRDVEDIYSVPVEDTIKALSKSFGSQRSLMIRRQSCLLISRASGASMDPLEYTNLVGEAVLDAKLSNMSTDDWSIFIFLRGMDAPEDALAKRYLMQYYEQFERKDEKLKLSDVHDEWIRYIQTQQQSKVITVTPARHPKFEVNQVDADDKKKDSRKGNYRPPYCYKCKVVGHVSKDCPQSSTNSGVTNRKTEHSEVNTLEVGSGRQTSPSLRLNVEGQQIDFTFDTGSDITLISVQNWQKIGKPHLEKVHHKICCANGTEIAVKGRVLVWFKVKGVEYTEYVYVWNRNNNLLGTSWMRHSPQMRDALAVMVNHISTVDNSKQNSHSFSRIPTGYKDRAENVGRHVVASAPRSSKRQYVRFARNKAFQIGQLCLARVQGEHDFGWIYGVVQRQVNGVLYEVQLGSRIQRIHTNQLRHICGRRSRGNDYASSFIENPCKLSLLENIPRSSCRQKFVAQGVRGEGREANPVLVSDSSVFGFSAPDLSACESVGSRSAREVVSSVAGNARNASGANITTIHVTESKSSLKKSHRRRRRVAKSRQSYTAGSSPIKETHLDPLLESDVASDGERFQPGILLRHSLRQSHPRQVVRGSAPNTDHVSTRRRGRDTASGRDAPSPGIISGFLSYKRGDVVDGT”, which “soluble on expression in E. coli” value is on record?
Its value is “soluble”.

With “MESTGSVGEAPGGPRVLVVGGGIAGLGAAQRLCGHSAFPHLRVLEATARAGGRIRSERCFGGVVEVGAHWIHGPSRGNPVFQLAAEYGLLGEKELSQENQLVETGGHVGLPSVSYASSGASVSLQLVAEMATLFYGLIDQTREFLHAAETPVPSVGEYLKKEIGQHVAGWTEDEETRKLKLAVLNSFFNLECCVSGTHSMDLVALAPFGEYTVLPGLDCTFSKGYQGLTNCMMAALPEDTVVFEKPVKTIHWNGSFQEAAFPGETFPVSVECEDGDRFPAHHVIVTVPLGFLREHLDTFFDPPLPAEKAEAIRKIGFGTNNKIFLEFEEPFWEPDCQLIQLVWEDTSPLEDAAPELQDAWFRKLIGFVVLPAFASVHVLCGFIAGLESEFMETLSDEEVLLCLTQVLRRVTGNPRLPAPKSVLRSRWHSAPYTRGSYSYVAVGSTGGDLDLLAQPLPADGAGAQLQILFAGEATHRTFYSTTHGALLSGWREADRLLSLWAPQVQQPRPRL” as the sequence, how does the “soluble on expression in E. coli” value read?
Its value is “not soluble”.

For “METFHWKVRPDMNVVSEPKVVTVKLGDGYEQRRAAGLNNQLSTYSVTIRVRKGEHPSLKAFLERHGGVRAFQWTPPYDWKLIRVVCRKWSASVGALWVTVTADFEQVVN”, which “soluble on expression in E. coli” value is on record?
The value was “not soluble”.

Which “soluble on expression in E. coli” value does the source give for “METKAKNKTQLAYEYILSRIENGVYGPGYRVVIDQIARELGLSSIPVREAIRQLEAEGLVEFKPYTGAVVSNINEKEYIETLSVLAVLEGYATALGSANLTKEAINELERLNERMERALEELELERFSELNYEFHSLIYAHCGNAYLEEQIKQIWQRMKRIRVYGFTFVPQRAKASIEEHREIIRLLHEQAPPHEIEQYVRQHKINTAEAFKRRR” here?
The value was “not soluble”.

With “METKEAIIHVIVATAEWGKDQLRYRRHRLAEFLAAQEETKEVIWVCPAPRAQGKEFQEVHSGIRQFAVKDLLQKKMFRFGRYTDVFYRHKLSPLLDELTPASANGERCCLWYTFPGFPLLSSLYSWDQVIYDCSDLWAAPISGRSNLLSEFRRKVIKSAELRIIQRADSITCSSDYLHKEVDKKLTAGREKVHTVENGVEYELFSANKQAPDRSILQGREGIVLGFIGGIKPKLDFKMIKEAALQKPDWTFLWVGPDATNGDVSFQELLRLPNVIWTGPADPKEVPHYMELIDIGIMPYKQSPYNQAVFPLKLFEFLAAGKPVVGTNLPSTSKMQKPYVYEYVEGDHPIDFIAACEKVLGQNGDETYKEMRRNIARTQDWNCLFRQIMKYTGIQKHAMAGDPLEHHHHHH” as the sequence, how does the “soluble on expression in E. coli” value read?
Its value is “not soluble”.

Which “soluble on expression in E. coli” value does the source give for “METLHTQEDIIKMLDSLLRPAEPFWNEFYANREKDVPFFENVPDENLVSYIQKKRVSKGKVLELGCGPGRNAIYLANEGFDVTAVDVSIEGINWAKERALAKGVEIEFICDSIFNLEVQNEFDFVYDSGCLHHIPPHRRVNYVDLIKNALKSGGYFGLTCFAAGDLDERNGSEITDWDVYRGWSLQGGLAYSEEKLREIFKGFEVIEIRKMEQIEQPNTMFGESFLWTALFKKNLEHHHHHH” here?
The value was “not soluble”.

Which “soluble on expression in E. coli” value does the source give for “METPLEKALTTMVTTFHKYSGREGSKLTLSRKELKELIKKELCLGEMKESSIDDLMKSLDKNSDQEIDFKEYSVFLTMLCMAYNDFFLEDNK” here?
Its value is “soluble”.

With “METQDHTLYVLLGPTGVGKTDLSLDIAERLGSPIISADSRQIFRELPIGTAAPTPEQRAKVPHLFVGTHSVRDYYSAGMYEVEVLEALKELFRKYRGVLLTGGSMMYIDAVCRGIDDIPDPFPEVREELYARYAAEGLDGILAQLRLLDPDYYAKVDRRNYKRVIHGLEICLSTGRPFSSFHRHEAKERPFRIVKIGLYREREELCKRIDARVLEMMEQGLEEEARAVYPLRHLNALNTVGYKEMFEYFDGSIDRAEAVRRIQRNSRVYARKQMTWFRRDSTIRWFHPEADKGTVLTLVT” as the sequence, how does the “soluble on expression in E. coli” value read?
Its value is “not soluble”.

For “METQWTRMTANEAAEIIQHNDMVAFSGFTPAGSPKALPTAIARRANEQHEAKKPYQIRLLTGASISAAADDVLSDADAVSWRAPYQTSSGLRKKINQGAVSFVDLHLSEVAQMVNYGFFGDIDVAVIEASALAPDGRVWLTSGIGNAPTWLLRAKKVIIELNHYHDPRVAELADIVIPGAPPRRNSVSIFHAMDRVGTRYVQIDPKKIVAVVETNLPDAGNMLDKQNPMCQQIADNVVTFLLQEMAHGRIPPEFLPLQSGVGNINNAVMARLGENPVIPPFMMYSEVLQESVVHLLETGKISGASASSLTISADSLRKIYDNMDYFASRIVLRPQEISNNPEIIRRLGVIALNVGLEFDIYGHANSTHVAGVDLMNGIGGSGDFERNAYLSIFMAPSIAKEGKISTVVPMCSHVDHSEHSVKVIITEQGIADLRGLSPLQRARTIIDNCAHPMYRDYLHRYLENAPGGHIHHDLSHVFDLHRNLIATGSMLGLEHHHHHH”, which “soluble on expression in E. coli” value is on record?
Its value is “not soluble”.

For “METRQASGQLAALVRPNDVNSGSLLFPSKEPGFYVEAPRLKTDVAIDVSGPIARVKVTQRFQNPSQGWIEGTYVFPLPDNSAVDALKMQIGDRFIEGQIKPRQEAREIYEQAKAEGKKTALLEQQRPNIFTNQVANIGPGEEIVVQIEYQQTVHQSGGEFSLRFPMVVAPRYNPAPIVQTVDFNNGAGFAIPRDPVQNREKIEAPVLDPRENARINPVSLTVNLKAGFPLGEVKSSFHDVDIGQDGDQARTISLKGDAVPADKDFELTWKAAPGKTPSAGLFREAIDGKTYLLAFVTPPTAPDAAAPSKREVVFVIDNSGSMSGQSIEQARQSLALAISRLNPNDRFNVIRFDDTMTDYFKGLVAATPDNREKAVAYVRSLTADGGTEMLPALEDALRNQGPVASGALRQVVFLTDGAIGNEQQLFQEITANRGDARVFTVGIGSAPNTYFMTKAAEVGRGTFTQIGSTDQVASRMSELFAKLQNPTMTDIAASFEGIEAEDITPNPMPDLYSGEPVVLTAELPQDKAAGKLQIVGKTGDQPWRVEMDIANAAVGSGISKLWARRKIDDLEARAYERQDPAALDKDIEAVALAHHLVSRVTSLVAVDVTPSRPANEPLGSAKLPLNLPEGWDFGKVFGEKAVPSGGAERHGAATPAGSAEPQRAAAATQDLAASPEIANLMAAAPTAKAATLIAQKSSTVNLPQTATRADEQIMRGLEHHHHHH”, which “soluble on expression in E. coli” value is on record?
Its value is “soluble”.

Which “soluble on expression in E. coli” value does the source give for “MEVDNVKPSSSVPQRNWEKENNVQNVDSIFEYNNKQQVEIRNAKPWDKDPHYFKQIKISAIALLKMTMHAKRGGNLEIMGLLQGRIDANSFIILDVFALPVEGTETRVNAQAQAYEYMTVYSEMCDTEGRKEKVVGWYHSHPGYGCWLSGIDVSTQTLNQKFQEPWVAIVIDPLRTMSAGKVDIGAFRTYPEGYRPPDDVPSEYQSIPLAKIEDFGVHCKRYYSLDVSFFKSQLDAHILTSLWNSYWISTLSSSPLFSNVEFLNNQIQDINQKLSAVDKKLQLNDRSVDGHEALMKVVTDAKAVGDELETGRISHLVKQLLFARQAGGGCGCSHASAGSPMDIAVATEPEKAGPSPSAPEPAVEMADA” here?
The value was “not soluble”.

Which “soluble on expression in E. coli” value does the source give for “MEVDTASSRHSTVLKRKATDSINEILNYGQSSTSPQKRCKKAASLHKYRDMETYHKIIKTYKAPTWYGCAVSPRDLADYGWACVKKDCVKCIECEQYLSTVLPNICKVSFNVYNSSLQDIHEKMTTAHRTTCKLRCGAPPFRIVEPTAKEVMDGIQRRLSDSKKIIDEDLKADIPSDVNLPKIEGVPEQLIYVAALGWHVSMPKRGSLLFGCDNCARELAIRCGNKFDPIHNHERWCPRIEMDDHGEPSWQSDLNTVLNTKNHVTNRYTGSSIFKEAYAARRLLDSSLSTIITPNYI” here?
The value was “not soluble”.

With “MEVEIKFKIKLEDFLHTLNTFNPEFVRYEEQEDVYFEVPRPKLLRIRGVHNLKKYYLTFKEILDENNEEFYEVEFEIGDFEKAVEVFKRLGFKIQATIKKKRWVYKLNGVTLEVNRVEGIGDFVDIEVISDSPEEAKEKIWEVAKMLGLKEEDVEPRLYLELINELSGRSSLEHHHHHH” as the sequence, how does the “soluble on expression in E. coli” value read?
Its value is “soluble”.

For “MEVFVFTPKGDLYKMPKGATVLDFAFAIHSKLGSKCIGAKVNGKNAQLKQTLNSGDQVEVMTSNTQTPKLEHHHHHH”, which “soluble on expression in E. coli” value is on record?
The value was “not soluble”.

For “MEVQSMLLNDVKWEKPVTISLQNGAPRIFNGVYEAFDFLQHEWPARGDRAHEQALRLCRASLMGDVAGEIARTAFVAASRQAHCLMEDKAEAPNTIASGS”, which “soluble on expression in E. coli” value is on record?
Its value is “soluble”.
